Data published in US20200262877A1, “ION CHANNEL-BINDING PEPTIDES AND METHODS OF USE THEREOF” (priority 2017, published 2020).

Assays:
5HT3a = target: T1, 5HT3a (Homo sapiens, UniProt P46098); assay: Ion channel panel (IonWorks Barracuda): 5HT3a; type: cell-based
T1 construct: host or cells: HEK293 or CHO
T1 sequence (P46098 whole entry, looked up): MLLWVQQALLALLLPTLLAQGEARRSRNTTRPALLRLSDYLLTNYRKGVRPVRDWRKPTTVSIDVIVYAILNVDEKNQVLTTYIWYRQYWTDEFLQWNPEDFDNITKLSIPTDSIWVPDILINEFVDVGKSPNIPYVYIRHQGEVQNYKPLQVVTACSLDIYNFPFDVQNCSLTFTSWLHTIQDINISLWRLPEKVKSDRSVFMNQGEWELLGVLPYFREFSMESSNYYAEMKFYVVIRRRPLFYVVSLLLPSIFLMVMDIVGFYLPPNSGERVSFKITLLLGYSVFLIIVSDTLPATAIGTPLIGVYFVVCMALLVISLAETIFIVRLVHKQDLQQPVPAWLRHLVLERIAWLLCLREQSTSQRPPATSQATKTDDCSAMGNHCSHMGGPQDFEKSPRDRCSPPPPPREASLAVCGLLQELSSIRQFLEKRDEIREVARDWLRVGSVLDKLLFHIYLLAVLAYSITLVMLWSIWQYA
In short: (§1)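 Transfected HEK293 or CHO cells were exposed for at least 5 min to peptides at 200 nM and 20 μM final, tested in duplicate, in HEPES-buffered physiological saline. Activation was taken as peptide-plus-agonist current over control current ×100, and inhibition as 1 minus that ratio ×100. Each channel's control was its own reference compound.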

α3β4 = target: T2, α3β4 (Homo sapiens, UniProt P30926+P32297); assay: Ion channel panel (IonWorks Barracuda): α3β4; type: cell-based; details: 100% = no change, <100% = inhibition
T2 construct: host or cells: HEK293 or CHO
In short: as §1

α4β2 = target: T3, α4β2 (Homo sapiens, UniProt P17787+P43681); assay: Ion channel panel (IonWorks Barracuda): α4β2; type: cell-based; details: 100% = no change, <100% = inhibition
T3 construct: host or cells: HEK293 or CHO
In short: as §1

Cav2.1 = target: T4, Cav2.1 (Homo sapiens, UniProt O00555); assay: cell-based; details: 100% = no change, <100% = inhibition
T4 construct: host or cells: HEK293 or CHO
In short: as §1

Cav2.2 = target: T5, Cav2.2 (Homo sapiens, UniProt Q00975); assay: cell-based; details: 100% = no change, <100% = inhibition
T5 construct: host or cells: HEK293 or CHO
In short: as §1

Kv2.1 = target: T6, Kv2.1 (Homo sapiens, UniProt Q14721); assay: cell-based; details: 100% = no change, <100% = inhibition
T6 construct: host or cells: HEK293 or CHO
In short: as §1

GABA = assay: Ion channel panel (IonWorks Barracuda): GABA; type: cell-based; details: 100% = no change, <100% = inhibition
In short: as §1

Nav1.5 = Nav1.5 (Homo sapiens, UniProt Q14524); assay: in vitro; details: 100% = no change; for Activity of Nav1.5 with peptide, expressed as a percentage of the reference compound: peptide at 0.2 μM; for Activity of Nav1.5 with peptide (percentage of the reference compound): peptide at 20 μM
In short: as §1

hERG = hERG (Homo sapiens, UniProt Q12809); assay: in vitro; details: 100% = no change, <100% = inhibition
In short: as §1

Kir2.1 = target: T7, Kir2.1 (Homo sapiens, UniProt P63252); assay: Ion channel panel (IonWorks Barracuda): Kir2.1; type: cell-based; details: 100% = no change, <100% = inhibition
T7 construct: host or cells: HEK293 or CHO
In short: as §1

Kv1.1 = target: T8, Kv1.1 (Homo sapiens, UniProt Q09470); assay: cell-based; type: cell-based; details: 100% = no change, <100% = inhibition
T8 construct: host or cells: HEK293 or CHO
In short: as §1

Kv1.2 = target: T9, Kv1.2 (Homo sapiens, UniProt P16389); assay: cell-based; type: cell-based; details: 100% = no change, <100% = inhibition
T9 construct: host or cells: HEK293 or CHO
In short: as §1

Kv1.3 = target: T10, Kv1.3 (Homo sapiens, UniProt P22001); assay: cell-based; type: cell-based; details: 100% = no change, <100% = inhibition
T10 construct: host or cells: HEK293 or CHO
In short: as §1

Nav1.7 = target: T11, Nav1.7 (Homo sapiens, UniProt Q15858); assay: cell-based; type: cell-based; details: 100% = no change; for Activity of Nav1.7 with peptide, expressed as a percentage of the reference compound: peptide at 0.2 μM; for Activity of Nav1.7 with peptide (percentage of the reference compound): peptide at 20 μM
T11 construct: host or cells: HEK293 or CHO

NR2A = target: T12, NR2A (Homo sapiens, UniProt Q12879); assay: Ion channel panel (IonWorks Barracuda): NR2A; type: cell-based; details: 100% = no change, <100% = inhibition
T12 construct: host or cells: HEK293 or CHO
In short: as §1

NR2B = target: T13, NR2B (Homo sapiens, UniProt Q13224); assay: Ion channel panel (IonWorks Barracuda): NR2B; type: cell-based; details: 100% = no change, <100% = inhibition
T13 construct: host or cells: HEK293 or CHO
In short: as §1

TRPA1 = target: T14, TRPA1 (Homo sapiens, UniProt O75762); assay: Ion channel panel (IonWorks Barracuda): TRPA1; type: cell-based; details: 100% = no change, <100% = inhibition
T14 construct: host or cells: HEK293 or CHO
In short: as §1

TRPV1 = target: T15, TRPV1 (Homo sapiens, UniProt Q8NER1); assay: Ion channel panel (IonWorks Barracuda): TRPV1; type: cell-based; details: 100% = no change, <100% = inhibition
T15 construct: host or cells: HEK293 or CHO
In short: as §1

[1] = first of two Nav1.5 columns (probably TP1)
[2] = second of two Nav1.5 columns (probably TP2)
[3] = first of two Nav1.7 columns (probably TP1)
[4] = second of two Nav1.7 columns (probably TP2)

T11 sequence (Q15858 whole entry): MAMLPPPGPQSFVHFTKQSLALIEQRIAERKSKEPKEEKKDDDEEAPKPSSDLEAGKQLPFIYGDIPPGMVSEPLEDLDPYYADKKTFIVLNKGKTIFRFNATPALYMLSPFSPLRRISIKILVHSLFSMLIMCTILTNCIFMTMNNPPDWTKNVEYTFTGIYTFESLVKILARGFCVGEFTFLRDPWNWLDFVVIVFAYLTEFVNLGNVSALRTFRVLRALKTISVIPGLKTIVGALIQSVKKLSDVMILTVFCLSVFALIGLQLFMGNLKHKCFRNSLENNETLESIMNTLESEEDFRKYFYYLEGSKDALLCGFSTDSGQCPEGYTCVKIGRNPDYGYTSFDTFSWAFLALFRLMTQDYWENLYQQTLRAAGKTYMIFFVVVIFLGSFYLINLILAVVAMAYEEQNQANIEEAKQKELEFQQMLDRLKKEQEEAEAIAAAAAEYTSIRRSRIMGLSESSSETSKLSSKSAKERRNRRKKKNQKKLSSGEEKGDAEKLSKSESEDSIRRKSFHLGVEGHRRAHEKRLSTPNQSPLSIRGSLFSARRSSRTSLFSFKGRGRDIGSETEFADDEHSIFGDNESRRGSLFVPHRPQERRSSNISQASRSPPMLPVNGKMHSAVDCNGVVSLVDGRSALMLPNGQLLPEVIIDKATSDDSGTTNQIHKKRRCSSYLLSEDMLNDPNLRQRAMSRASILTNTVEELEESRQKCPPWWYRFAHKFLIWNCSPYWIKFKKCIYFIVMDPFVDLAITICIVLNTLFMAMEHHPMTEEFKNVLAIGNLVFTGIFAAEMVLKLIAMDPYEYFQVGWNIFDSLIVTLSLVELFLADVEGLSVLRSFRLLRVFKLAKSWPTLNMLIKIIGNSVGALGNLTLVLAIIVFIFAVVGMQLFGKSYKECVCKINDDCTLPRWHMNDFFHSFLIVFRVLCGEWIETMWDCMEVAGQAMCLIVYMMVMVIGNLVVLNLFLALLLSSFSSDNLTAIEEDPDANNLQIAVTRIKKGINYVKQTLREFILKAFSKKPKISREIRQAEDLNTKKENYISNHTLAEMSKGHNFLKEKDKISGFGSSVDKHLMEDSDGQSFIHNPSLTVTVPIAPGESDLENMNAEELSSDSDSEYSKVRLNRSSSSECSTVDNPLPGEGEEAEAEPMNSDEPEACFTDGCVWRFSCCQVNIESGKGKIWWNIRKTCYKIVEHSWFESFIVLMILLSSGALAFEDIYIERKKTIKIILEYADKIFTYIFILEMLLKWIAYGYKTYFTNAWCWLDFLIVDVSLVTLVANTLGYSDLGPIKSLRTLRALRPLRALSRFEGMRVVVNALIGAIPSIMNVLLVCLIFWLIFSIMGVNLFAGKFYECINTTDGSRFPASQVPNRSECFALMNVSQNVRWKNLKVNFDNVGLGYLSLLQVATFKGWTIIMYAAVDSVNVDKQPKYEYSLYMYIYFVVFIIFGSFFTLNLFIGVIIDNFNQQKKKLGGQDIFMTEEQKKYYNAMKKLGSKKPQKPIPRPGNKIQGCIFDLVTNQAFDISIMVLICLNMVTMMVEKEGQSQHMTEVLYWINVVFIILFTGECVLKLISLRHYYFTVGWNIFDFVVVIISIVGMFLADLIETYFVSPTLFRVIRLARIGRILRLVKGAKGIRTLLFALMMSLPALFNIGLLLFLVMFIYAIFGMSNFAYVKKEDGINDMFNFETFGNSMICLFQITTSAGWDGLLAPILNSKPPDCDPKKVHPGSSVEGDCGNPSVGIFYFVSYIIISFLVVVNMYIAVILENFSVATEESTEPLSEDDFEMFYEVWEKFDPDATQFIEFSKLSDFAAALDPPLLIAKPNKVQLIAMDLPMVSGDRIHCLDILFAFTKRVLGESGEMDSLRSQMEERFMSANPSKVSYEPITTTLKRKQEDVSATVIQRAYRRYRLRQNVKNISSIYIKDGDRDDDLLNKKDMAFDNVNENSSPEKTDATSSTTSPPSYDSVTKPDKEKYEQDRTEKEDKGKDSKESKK
Sequence of Nav1.5 (Q14524 whole entry): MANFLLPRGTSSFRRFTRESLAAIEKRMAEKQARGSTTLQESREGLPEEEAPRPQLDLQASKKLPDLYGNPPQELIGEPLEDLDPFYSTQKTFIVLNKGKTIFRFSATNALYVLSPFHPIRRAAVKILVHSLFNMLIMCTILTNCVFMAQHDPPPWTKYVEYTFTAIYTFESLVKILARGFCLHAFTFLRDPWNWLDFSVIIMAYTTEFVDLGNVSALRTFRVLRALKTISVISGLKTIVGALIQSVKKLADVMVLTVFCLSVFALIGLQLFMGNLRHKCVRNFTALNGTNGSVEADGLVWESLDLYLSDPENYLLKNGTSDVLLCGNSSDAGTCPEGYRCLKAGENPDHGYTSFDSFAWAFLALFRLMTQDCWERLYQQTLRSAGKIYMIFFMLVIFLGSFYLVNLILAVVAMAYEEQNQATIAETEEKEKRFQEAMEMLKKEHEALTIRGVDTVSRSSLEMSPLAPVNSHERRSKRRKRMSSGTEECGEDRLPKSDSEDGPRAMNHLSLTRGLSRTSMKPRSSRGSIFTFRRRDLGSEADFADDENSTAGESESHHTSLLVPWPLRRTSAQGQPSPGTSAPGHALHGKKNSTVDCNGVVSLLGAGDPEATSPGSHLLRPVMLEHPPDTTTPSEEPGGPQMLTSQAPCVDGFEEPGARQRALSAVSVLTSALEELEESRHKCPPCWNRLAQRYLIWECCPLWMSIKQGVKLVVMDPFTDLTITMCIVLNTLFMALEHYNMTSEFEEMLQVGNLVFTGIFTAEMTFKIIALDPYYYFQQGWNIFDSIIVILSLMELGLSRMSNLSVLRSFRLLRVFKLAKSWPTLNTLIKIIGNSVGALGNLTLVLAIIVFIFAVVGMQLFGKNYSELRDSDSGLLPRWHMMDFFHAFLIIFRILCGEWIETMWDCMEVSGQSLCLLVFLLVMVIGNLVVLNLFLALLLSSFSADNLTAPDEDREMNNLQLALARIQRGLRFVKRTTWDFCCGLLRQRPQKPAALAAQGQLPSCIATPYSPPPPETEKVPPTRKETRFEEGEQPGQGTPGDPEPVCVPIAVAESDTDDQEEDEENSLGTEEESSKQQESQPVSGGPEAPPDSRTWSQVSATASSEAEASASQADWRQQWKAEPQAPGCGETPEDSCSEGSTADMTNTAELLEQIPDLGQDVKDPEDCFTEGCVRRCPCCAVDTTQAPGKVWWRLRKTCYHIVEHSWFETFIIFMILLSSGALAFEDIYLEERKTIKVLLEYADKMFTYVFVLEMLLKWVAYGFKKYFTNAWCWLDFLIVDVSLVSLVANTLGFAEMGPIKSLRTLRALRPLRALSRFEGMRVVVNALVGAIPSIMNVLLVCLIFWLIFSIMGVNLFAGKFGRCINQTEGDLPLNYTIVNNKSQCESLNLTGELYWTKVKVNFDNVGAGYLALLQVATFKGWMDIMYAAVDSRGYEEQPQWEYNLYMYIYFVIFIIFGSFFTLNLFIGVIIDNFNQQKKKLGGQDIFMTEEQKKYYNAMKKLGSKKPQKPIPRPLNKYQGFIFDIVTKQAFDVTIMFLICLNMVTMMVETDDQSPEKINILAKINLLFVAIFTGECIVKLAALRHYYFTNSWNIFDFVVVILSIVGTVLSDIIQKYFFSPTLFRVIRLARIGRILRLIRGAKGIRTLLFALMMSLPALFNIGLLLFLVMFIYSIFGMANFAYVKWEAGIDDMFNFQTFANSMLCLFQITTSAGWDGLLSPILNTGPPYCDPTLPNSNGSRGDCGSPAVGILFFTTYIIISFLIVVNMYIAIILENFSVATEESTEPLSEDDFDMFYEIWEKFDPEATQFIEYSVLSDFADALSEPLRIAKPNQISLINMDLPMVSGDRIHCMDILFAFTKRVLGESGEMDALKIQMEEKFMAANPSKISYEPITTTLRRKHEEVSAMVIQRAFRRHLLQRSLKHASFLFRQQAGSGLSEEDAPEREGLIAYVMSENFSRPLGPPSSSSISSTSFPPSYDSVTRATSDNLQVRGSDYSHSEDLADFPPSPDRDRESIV
Sequence of hERG (Q12809 whole entry): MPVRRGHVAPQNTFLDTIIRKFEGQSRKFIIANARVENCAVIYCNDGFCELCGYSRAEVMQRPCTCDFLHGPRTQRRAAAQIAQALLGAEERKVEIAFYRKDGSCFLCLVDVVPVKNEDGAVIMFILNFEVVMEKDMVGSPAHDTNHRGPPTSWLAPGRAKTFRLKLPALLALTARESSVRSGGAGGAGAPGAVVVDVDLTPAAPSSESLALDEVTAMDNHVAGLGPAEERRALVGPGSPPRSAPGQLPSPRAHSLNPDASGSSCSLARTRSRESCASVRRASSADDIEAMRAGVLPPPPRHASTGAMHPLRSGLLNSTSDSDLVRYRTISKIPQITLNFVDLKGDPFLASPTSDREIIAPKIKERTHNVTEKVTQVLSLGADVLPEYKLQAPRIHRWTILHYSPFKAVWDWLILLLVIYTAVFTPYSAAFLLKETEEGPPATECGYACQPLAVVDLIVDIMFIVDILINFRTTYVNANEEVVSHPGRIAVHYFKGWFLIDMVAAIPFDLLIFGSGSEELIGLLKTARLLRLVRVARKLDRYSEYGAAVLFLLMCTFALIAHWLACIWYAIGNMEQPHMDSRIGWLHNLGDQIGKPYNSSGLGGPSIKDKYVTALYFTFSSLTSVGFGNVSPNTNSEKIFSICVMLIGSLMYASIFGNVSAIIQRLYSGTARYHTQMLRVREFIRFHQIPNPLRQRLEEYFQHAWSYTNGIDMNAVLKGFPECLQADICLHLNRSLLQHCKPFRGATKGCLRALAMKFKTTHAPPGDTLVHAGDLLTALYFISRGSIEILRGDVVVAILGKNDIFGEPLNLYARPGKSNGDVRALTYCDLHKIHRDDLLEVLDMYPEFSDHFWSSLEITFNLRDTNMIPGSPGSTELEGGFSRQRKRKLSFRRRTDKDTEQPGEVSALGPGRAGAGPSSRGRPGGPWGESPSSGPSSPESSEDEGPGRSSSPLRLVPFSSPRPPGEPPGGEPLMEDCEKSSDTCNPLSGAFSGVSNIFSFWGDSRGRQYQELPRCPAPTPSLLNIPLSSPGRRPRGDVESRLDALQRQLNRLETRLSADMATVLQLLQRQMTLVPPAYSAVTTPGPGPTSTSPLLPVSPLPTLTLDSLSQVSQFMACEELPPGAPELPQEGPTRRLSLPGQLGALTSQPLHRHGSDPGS

25 (GSACLAEYQKCEGSTVPCCPGLSCSAGRFRKTKLCTK) [compound 25]
Activity of 5HT3a with peptide (percentage of the reference compound) (5HT3a): 94%
Activity of 5HT3a with peptide, expressed as a percentage of the reference compound (5HT3a): 82%
Activity of a3b4 with peptide, expressed as a percentage of the reference compound (α3β4; peptide at 0.2 μM): 105%
Activity of a3b4 with peptide (percentage of the reference compound) (α3β4; peptide at 20 μM): 91%
Activity of a4b2 with peptide, expressed as a percentage of the reference compound (α4β2; peptide at 0.2 μM): 73%
Activity of a4b2 with peptide (percentage of the reference compound) (α4β2; peptide at 20 μM): 75%
Activity of Cav2.1 with peptide, expressed as a percentage of the reference compound (Cav2.1; peptide at 0.2 μM): 89%
Activity of Cav2.1 with peptide (percentage of the reference compound) (Cav2.1; peptide at 20 μM): 109%
Activity of Cav2.2 with peptide, expressed as a percentage of the reference compound (Cav2.2; peptide at 0.2 μM): 111%
Activity of Cav2.2 with peptide (percentage of the reference compound) (Cav2.2; peptide at 20 μM): 111%
Activity of Kv2.1 with peptide, expressed as a percentage of the reference compound (Kv2.1; peptide at 0.2 μM): 88%
Activity of Kv2.1 with peptide (percentage of the reference compound) (Kv2.1; peptide at 20 μM): 107%
Activity of GABA with peptide, expressed as a percentage of the reference compound (GABA; peptide at 0.2 μM): 111%
Activity of GABA with peptide (percentage of the reference compound) (GABA; peptide at 20 μM): 98%
Activity of Nav1.5 with peptide, expressed as a percentage of the reference compound (Nav1.5; [1]): 76%
Activity of Nav1.5 with peptide, expressed as a percentage of the reference compound (Nav1.5; [2]): 74%
Activity of Nav1.5 with peptide (percentage of the reference compound) (Nav1.5; [1]): 88%
Activity of Nav1.5 with peptide (percentage of the reference compound) (Nav1.5; [2]): 87%
Activity of hERG with peptide, expressed as a percentage of the reference compound (hERG; peptide at 0.2 μM): 76%
Activity of hERG with peptide (percentage of the reference compound) (hERG; peptide at 20 μM): 79%
Activity of Kir2.1 with peptide, expressed as a percentage of the reference compound (Kir2.1; peptide at 0.2 μM): 79%
Activity of Kir2.1 with peptide (percentage of the reference compound) (Kir2.1; peptide at 20 μM): 98%
Activity of Kv1.1 with peptide, expressed as a percentage of the reference compound (Kv1.1; peptide at 0.2 μM): 69%
Activity of Kv1.1 with peptide (percentage of the reference compound) (Kv1.1; peptide at 20 μM): 77%
Activity of Kv1.2 with peptide, expressed as a percentage of the reference compound (Kv1.2; peptide at 0.2 μM): 72%
Activity of Kv1.2 with peptide (percentage of the reference compound) (Kv1.2; peptide at 20 μM): 85%
Activity of Kv1.3 with peptide, expressed as a percentage of the reference compound (Kv1.3; peptide at 0.2 μM): 74%
Activity of Kv1.3 with peptide (percentage of the reference compound) (Kv1.3; peptide at 20 μM): 87%
Activity of Nav1.7 with peptide, expressed as a percentage of the reference compound (Nav1.7; [3]): 66%
Activity of Nav1.7 with peptide, expressed as a percentage of the reference compound (Nav1.7; [4]): 54%
Activity of Nav1.7 with peptide (percentage of the reference compound) (Nav1.7; [3]): 90%
Activity of Nav1.7 with peptide (percentage of the reference compound) (Nav1.7; [4]): 83%
Activity of NR2A with peptide, expressed as a percentage of the reference compound (NR2A; peptide at 0.2 μM): 94%
Activity of NR2A with peptide (percentage of the reference compound) (NR2A; peptide at 20 μM): 106%
Activity of NR2B with peptide, expressed as a percentage of the reference compound (NR2B; peptide at 0.2 μM): 99%
Activity of NR2B with peptide (percentage of the reference compound) (NR2B; peptide at 20 μM): 94%
Activity of TRPA1 with peptide, expressed as a percentage of the reference compound (TRPA1; peptide at 0.2 μM): 124%
Activity of TRPA1 with peptide (percentage of the reference compound) (TRPA1; peptide at 20 μM): 129%
Activity of TRPV1 with peptide, expressed as a percentage of the reference compound (TRPV1; peptide at 0.2 μM): 117%
Activity of TRPV1 with peptide (percentage of the reference compound) (TRPV1; peptide at 20 μM): 113%
